The values that follow come from patent US8614103B2, “Compositions and methods for treating sphingosine-1-phosphate (S1P) related ocular diseases and conditions” (Lpath, Inc., priority 2006, dated 2013).

Assay [1] has as its system VEGF- or bFGF-induced neovascularization. The assay is described as follows: In vivo Matrigel plug assay, VEGF or bFGF plugs, neovascularization. The note with it: 25 mg/kg i.p. every 48 hrs, 10 days. Also on record: species or system mouse. The procedure: Endogenous S1P from the blood and surrounding tissue could supply a wound with pro-angiogenic stimuli. The ability of SPHINGOMAB to reduce endogenous S1P in a wound was investigated. Optimally stimulated plugs (Matrigel supplemented with 0.5 μg/mL bFGF or […] VEGF) were implanted into mice. Mice received i.p. injections of 25 mg/kg SPHINGOMAB or saline every 48 hrs starting 1 day prior to Matrigel implantation. Each treatment group (Matrigel, Matrigel plus GF or Matrigel plus GF and administered SPHINGOMAB) consisted of a minimum of 6 mice. After 10 days, the mice were treated with heparin, injected with Isolectin B4-FITC, the plugs excised, embedded in OCT freezing medium and sectioned.

Assay [2] concerns ovarian cancer (OVCAR3) cells. The assay is described as follows: S1P-induced IL-8 release. The note with it: 1 uM S1P; 22 hours. In kind it is cell-based, human. As for the experimental part: FIG. 12 has two panels, A and B, that show data from in vitro cell assays performed using several humanized monoclonal antibody variants. […] As described in Example 16, below, SKOV3 cells were treated for 48 hr. with 500 nM Taxol (Tax) in the presence or absence of 500 nM S1P with huMAbHCLC3 (309), huMAbHCLC5 (308), muMAb S1P (muMAb), or non-specific IgG1 (NS) at a concentration of 1 μg/mL. Values represent means±SEM (n=3) with triplicates run for each data point. “NT” means not treated, and “Veh” stans for vehicle only. […] In the experiments described in detail in Example 16, below, 100,000 OVCAR3 cells/well were starved overnight and 1 uM S1P was added to the culture media alone or pre-incubated with 1 ug/ml of non-specific antibody (NS), pATH201+pATH309 (LC3), pATH201+pATH308 (LC5), pATH207+pATH309 (cysLC3), pATH207+pATH308 (cysLC5), and 0.1 ug/ml (M0.1), 1 ug/ml (M1) or 10 ug/ml (M10) of anti-S1P murine antibody. After 22 hours of incubation, cell supernatants were collected and IL-8 secretion was measured by ELISA using an R&D system Quantikine human CXCL8/IL-8 kit. In the figure “NT” refers to non-treated cells.
In parallel, all the variants were tested for their effects on S1P-induced cytokine release from cancer cells. S1P is known to elicit significant release of IL-8 into the cell-conditioned media from cancer cells.

B1: LT1002: murine monoclonal antibody to S1P, IgG1 kappa, hybridoma clone 306D326.26 (antibody, listed as Mus sp., V domains shown)
VH: QAHLQQSDAELVKPGASVKISCKVSGFIFIDHTIHWMKQRPEQGLEWIGCISPRHDITKYNEMFRGKATLTADKSSTTAYIQVNSLTFEDSAVYFCARGGFYGSTIWFDFWGQGTTLTVS
VL: ETTVTQSPASLSMAIGEKVTIRCITTTDIDDDMNWFQQKPGEPPNLLISEGNILRPGVPSRFSSSGYGTDFLFTIENMLSEDVADYYCLQSDNLPFTFGSGTKLEIK
B1: the “decrease in neovascularization of VEGF-containing plugs vs saline-treated” value in assay [1] is listed as 5 fold. The “decrease in neovascularization of bFGF-containing plugs vs saline-treated” value in assay [1] (0.5 μg/mL bFGF) is 8.5 fold. In addition, the “reduction of S1P-induced IL-8 release” value in assay [2] was “reduced IL-8 release from ovarian cancer cells in a concentration-dependent manner”.
